Patent publication US20200392227A1 (LYVGEN BIOPHARMA, published 2020)
Where a chain is given by its changes, count along the chain named. Read-outs that look alike come from different tables or passages of the source. Each block holds one binder with its values, some of them ahead of it.

Experiments:
[1] = target: T1, human FcγRIIC expressed on CHO cells (human, UniProt P31995 43-323); assay: FACS, CHO cells expressing FcγRIIC
T1 construct: whole, on cells
T1 sequence (looked up): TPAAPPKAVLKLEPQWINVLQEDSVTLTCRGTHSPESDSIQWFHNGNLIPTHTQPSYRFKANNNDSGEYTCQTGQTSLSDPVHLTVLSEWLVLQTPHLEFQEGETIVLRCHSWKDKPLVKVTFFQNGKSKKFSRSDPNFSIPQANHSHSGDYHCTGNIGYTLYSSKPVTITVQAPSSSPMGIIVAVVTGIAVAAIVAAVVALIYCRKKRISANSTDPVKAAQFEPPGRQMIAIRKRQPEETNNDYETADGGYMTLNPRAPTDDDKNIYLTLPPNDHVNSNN
Method: FIGS. 1A-1W are charts showing binding activity of various IgG variants as indicated to different types of Fcγ receptors expressed on CHO-K1 cells at the various concentrations as indicated. The concentrations of each IgG variant, from left to right, are 0 μg/ml, 0.3 μg/ml, 1 μg/ml, 3 μg/ml, and 10 μg/ml in FIGS. 1A-1C, 1E-J, 1L-1M, 1P-1R, and 1T-1V. For FIGS. 1D, 1K, 10, 1S, and 1w the bars, from left to right, correspond to the following concentrations of IgG variant: 0.3 μg/ml, 1 μg/ml, 3 μg/ml, and 10 μg/ml.
For FACS analysis of the IgG mutants' binding to different FcγRs, FcγR overexpressing CHO cells were harvested using trypsin-EDTA and were suspended in cold staining buffer (3% BSA in PBS). Test IgG mutants, which were diluted in staining buffer, were added into the cells. The mixture was incubated 4° C. for 2 hours, and then washed twice with cold staining buffer and re-suspended in PE-labeled anti-human IgG followed by incubation at 4° C. for 2 hours. The mixture was washed twice with staining buffer and re-suspended in 2% PFA in PBS for FACS.

[2] = target: T2, human FcRI protein (MednaBio, E1031) (human, UniProt P12314 16-288, limits assumed); assay: BLI
T2 construct: Bought; loaded on anti-penta-HIS biosensors; also called FcγRI
In short: (§1)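 Binding was measured by biolayer interferometry on an Octet Red96 System. Commercial human Fc receptor proteins were loaded at 20 μg/mL onto anti-penta-HIS biosensors, which were then dipped into an 8-point 1:3 dilution series of test IgG starting at 300 nM in PBS with 0.1% BSA and 0.02% Tween-20, at pH 7.2 for Fcγ receptors and pH 6 for FcRn. Kd, kon and koff were obtained by global fitting, with data fitted to a 1:1 binding model.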

[3] = target: T3, human FcRIIIA-F158 protein (MednaBio, E1036) (human, UniProt P08637 17-208); assay: BLI
T3 construct: Bought; also called FcγRIIIA(F)
In short: as §1

[4] = target: T4, human FcRIIIB protein (MednaBio, E1037) (human, UniProt O75015 17-200); assay: BLI
T4 construct: Bought; also called FcγRIIIB; FcgRIIIB
In short: as §1

[5] = target: T5, human FcRIIIA-V158 protein (MednaBio, E1035) (human, UniProt P08637 17-208); assay: BLI
T5 construct: Bought; also called FcγRIIIA(V); FcgRIIIA(V)
In short: as §1

[6] = target: T6, human FcRIIA protein (MednaBio, E1033) (human, UniProt P12318 34-218, limits assumed); assay: BLI
T6 construct: Bought; also called FcγRIIA
T6 sequence (looked up): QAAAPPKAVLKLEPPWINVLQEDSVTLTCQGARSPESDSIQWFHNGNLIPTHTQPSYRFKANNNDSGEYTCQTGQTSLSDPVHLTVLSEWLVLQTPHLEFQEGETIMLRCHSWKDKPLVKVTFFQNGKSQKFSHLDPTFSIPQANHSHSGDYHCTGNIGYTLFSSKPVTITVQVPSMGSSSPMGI
In short: as §1

[7] = target: T7, human FcRIIB/C protein (MednaBio, E1034) (human, UniProt P31994 43-217, limits assumed); assay: BLI
T7 construct: Bought as FcRIIB/C; also called FcγRIIB; CD32B
T7 sequence (looked up): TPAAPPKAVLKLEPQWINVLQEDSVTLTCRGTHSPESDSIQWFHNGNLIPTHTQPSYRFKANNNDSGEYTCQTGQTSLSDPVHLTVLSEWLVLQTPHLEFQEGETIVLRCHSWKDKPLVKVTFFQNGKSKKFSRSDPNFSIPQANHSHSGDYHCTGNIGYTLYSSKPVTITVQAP
In short: as §1

[8] = target: T8, human FcRn protein (MednaBio, E1032) (human, UniProt P55899 24-297; P61769 21-119); assay: BLI
T8 construct: Bought; assays at pH 6
In short: as §1

[9] = target: T2, human FcRI protein (MednaBio, E1031); assay: BLI; remark: listed apart in the source
In short: as §1

[10] = target: T3, human FcRIIIA-F158 protein (MednaBio, …); assay: BLI; remark: listed apart in the source
In short: as §1

[11] = target: T4, human FcRIIIB protein (MednaBio, E1037); assay: BLI; remark: listed apart in the source
In short: as §1

[12] = target: T5, human FcRIIIA-V158 protein (MednaBio, …); assay: BLI; remark: listed apart in the source
In short: as §1

[13] = target: T6, human FcRIIA protein (MednaBio, E1033); assay: BLI; remark: listed apart in the source
In short: as §1

[14] = target: T7, human FcRIIB/C protein (MednaBio, E1034); assay: BLI; remark: listed apart in the source
In short: as §1

[15] = target: T8, human FcRn protein (MednaBio, E1032); assay: BLI; remark: listed apart in the source
In short: as §1

T2 sequence (P12314 16-288 limits assumed): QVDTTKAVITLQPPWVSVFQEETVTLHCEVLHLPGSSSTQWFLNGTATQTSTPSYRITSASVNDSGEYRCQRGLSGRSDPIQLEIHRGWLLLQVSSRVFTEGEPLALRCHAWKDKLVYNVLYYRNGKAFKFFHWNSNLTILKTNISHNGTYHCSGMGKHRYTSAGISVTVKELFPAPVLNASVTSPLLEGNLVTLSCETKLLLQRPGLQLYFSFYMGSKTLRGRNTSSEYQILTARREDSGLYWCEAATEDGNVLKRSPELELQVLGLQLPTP
T3 sequence (P08637 17-208 limits assumed): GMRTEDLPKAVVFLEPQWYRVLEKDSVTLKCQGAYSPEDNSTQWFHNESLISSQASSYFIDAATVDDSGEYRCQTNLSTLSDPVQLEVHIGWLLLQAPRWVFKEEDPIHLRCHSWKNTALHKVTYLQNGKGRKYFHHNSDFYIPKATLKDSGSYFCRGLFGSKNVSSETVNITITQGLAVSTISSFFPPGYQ
T4 sequence (O75015 17-200 limits assumed): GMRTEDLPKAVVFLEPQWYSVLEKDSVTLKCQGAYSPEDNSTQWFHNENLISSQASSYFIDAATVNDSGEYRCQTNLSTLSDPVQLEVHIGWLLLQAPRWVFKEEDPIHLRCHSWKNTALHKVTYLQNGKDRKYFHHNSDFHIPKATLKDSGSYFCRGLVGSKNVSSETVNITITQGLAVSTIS
T5 sequence (P08637 17-208 F176V): as the sequence (P08637 17-208 limits assumed) above, with F160V counted along it

B3: anti-CD137 IgG1 with Fc variant G1m15 (antibody)
heavy: EVQLVQSGAEVKKPGESLRISCKGSGYSFSTYWISWVRQMPGKGLEWMGKIYPGDSYTNYSPSFQGQVTISADKSISTAYLQWSSLKASDTAMYYCARGYGIFDYWGQGTLVTVSSASTKGPSVFPLAPSSKSTSGGTAALGCLVKDYFPEPVTVSWNSGALTSGVHTFPAVLQSSGLYSLSSVVTVPSSSLGTQTYICNVNHKPSNTKVDKKVEPKSCDKTHTCPPCPAPELLSVFLFPPKPKDTLMISRTPEVTCVVVDVSHEDPEEKFNWYVDGVEVHNAKTKPREEQYNSTYRVVSVLTVLHQDWLNGKEYKCKVSNKALPAPIEKTISKAKGQPREPQVYTLPPSREEMTKNQVSLTCLVKGFYPSDIAVEWESNGQPENNYKTTPPVLDSDGSFFLYSKLTVDKSRWQQGNVFSCSVMHEALHNHYTQKSLSLSPGK
light: SYELTQPPSVSVSPGQTASITCSGDNIGDQYAHWYQQKPGQSPVLVIYQDKNRPSGIPERFSGSNSGNTATLTISGTQAMDEADYYCATYTGFGSLAVFGGGTKLTVLGQPKAAPSVTLFPPSSEELQANKATLVCLISDFYPGAVTVAWKADSSPVKAGVETTTPSKQSNNKYAASSYLSLTPEQWKSHRSYSCQVTHEGSTVEKTVAPTECS
notes: copies: 2 + 2
Kd [9]: 120 nM
koff [9]: 0.06 s⁻¹
kon [9]: 500000 M⁻¹ s⁻¹
binding result [10]: no binding (tested: 300 nM)
binding result [11]: no binding (tested: 300 nM)
binding result [12]: no binding (tested: 300 nM)
Kd [13]: 480 nM
koff [13]: 0.11 s⁻¹
kon [13]: 230000 M⁻¹ s⁻¹
Kd [14]: 700 nM
koff [14]: 0.38 s⁻¹
kon [14]: 540000 M⁻¹ s⁻¹
Kd [15]: 21 nM
koff [15]: 0.013 s⁻¹
kon [15]: 600000 M⁻¹ s⁻¹

B4: anti-CD137 IgG1 with Fc variant G1m17 (antibody)
heavy: B3 heavy with S263E, E269V
light: B3 light
notes: copies: 2 + 2
Kd [9]: 88 nM
koff [9]: 0.041 s⁻¹
kon [9]: 460000 M⁻¹ s⁻¹
binding result [10]: no binding (tested: 300 nM)
binding result [11]: no binding (tested: 300 nM)
binding result [12]: no binding (tested: 300 nM)
Kd [13]: 250 nM
koff [13]: 0.059 s⁻¹
kon [13]: 240000 M⁻¹ s⁻¹
Kd [14]: 180 nM
koff [14]: 0.043 s⁻¹
kon [14]: 240000 M⁻¹ s⁻¹
Kd [15]: 10.7 nM
koff [15]: 0.00764 s⁻¹
kon [15]: 715000 M⁻¹ s⁻¹

Results, then the binder that gave them:

binding result [1]: binds
Kd [2]: 2.1 nM
koff [2]: 0.0011 s⁻¹
kon [2]: 540000 M⁻¹ s⁻¹
binding result [3]: no binding (tested: 300 nM)
binding result [4]: no binding (tested: 300 nM)
binding result [5]: no binding (tested: 300 nM)
Kd [6]: 210 nM
koff [6]: 0.034 s⁻¹
kon [6]: 160000 M⁻¹ s⁻¹
Kd [7]: 45 nM
koff [7]: 0.02 s⁻¹
kon [7]: 440000 M⁻¹ s⁻¹
Kd [8]: 23 nM
koff [8]: 0.012 s⁻¹
kon [8]: 520000 M⁻¹ s⁻¹
B1: anti-CD137 IgG4 with Fc variant G4m7 (antibody)
heavy: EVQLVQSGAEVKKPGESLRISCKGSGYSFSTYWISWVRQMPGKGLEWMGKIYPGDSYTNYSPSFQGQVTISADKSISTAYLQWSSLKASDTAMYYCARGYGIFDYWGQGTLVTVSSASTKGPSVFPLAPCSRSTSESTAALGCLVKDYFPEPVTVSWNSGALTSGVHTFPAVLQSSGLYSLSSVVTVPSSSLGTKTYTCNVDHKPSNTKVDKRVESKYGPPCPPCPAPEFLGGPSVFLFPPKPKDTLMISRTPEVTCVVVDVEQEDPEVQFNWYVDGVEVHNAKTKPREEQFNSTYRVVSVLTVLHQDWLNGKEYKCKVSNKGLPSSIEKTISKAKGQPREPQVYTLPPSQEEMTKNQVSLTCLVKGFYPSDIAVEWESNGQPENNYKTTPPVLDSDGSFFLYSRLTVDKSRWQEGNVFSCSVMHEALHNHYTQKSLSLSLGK
light: B3 light
notes: copies: 2 + 2

Kd [9]: 260 nM
koff [9]: 0.21 s⁻¹
kon [9]: 830000 M⁻¹ s⁻¹
binding result [10]: no binding (tested: 300 nM)
binding result [11]: no binding (tested: 300 nM)
binding result [12]: no binding (tested: 300 nM)
Kd [13]: 140 nM
koff [13]: 0.029 s⁻¹
kon [13]: 200000 M⁻¹ s⁻¹
Kd [14]: 670 nM
koff [14]: 0.39 s⁻¹
kon [14]: 580000 M⁻¹ s⁻¹
Kd [15]: 12.8 nM
koff [15]: 0.00803 s⁻¹
kon [15]: 630000 M⁻¹ s⁻¹
B2: anti-CD137 IgG1 with Fc variant G1m18 (antibody)
heavy: B3 heavy with E269V, L324F
light: B3 light
notes: copies: 2 + 2
